Results from the supplement of paper PMC7877785.
± gives the uncertainty stated by the source.

Experiment: self-splicing fitness, log relative to wild type (ln ratio); higher = more splicing; Tetrahymena group I intron in knt gene, E. coli kanamycin selection, DiMSum; sequences stand for … in CUCUCU…GGAGGGAAAAGUUAUCAGGCAUGCACCUGGUAGCUAGUCUUUAAACCAAUAGAUUGCAUCGGUUUAAAAGGCAAGACCGUCAAAUUGCGGGAAAGGGGUCAACAGCCGUUCAGUACCAAGUCUCAGGGGAAACUUUGAGAUGGCCUUGCAAAGGGUAUGGUAAUAAGCUGACGGACAUGGUCCUAACCACGCAGCCAAGUCCUAAGUCAACAGAUCUUCUGUUGAUAUGGAUGCAGUUCACAGACUAAAUGUCGGUCGGGGAAGAUGUAUUCUUCUCAUAAGAUAUAGUCGGACCUCUCCUUAAUGGGAGCUAGCGGAUGAAGUGAUGCAACACUGGAGCCGCUGGGAACUAAUUUGUAUGCGAAAGUAUAUUGAUUAGUUUUGGAGUACUCGUGGUCG
Method in brief: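 DiMSum derived fitness as the error-weighted combination of fold changes across replicates, kanamycin versus no kanamycin, normalised to wild type. E. coli BL21(DE3) held the library, which randomised all eight P1ex-region intron nucleotides within the knt kanamycin-resistance gene on pET-22b(+). Six replicate transformations grew overnight at 37°C or 30°C on LB agar with or without 25 μg/mL kanamycin, also containing 100 μg/mL carbenicillin, 50 μM IPTG and 0.2% rhamnose, and pooled colonies were amplicon-sequenced on an Illumina HiSeq 2500.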

Sequence	self-splicing fitness (ln) (30 °C)	self-splicing fitness (ln) (37 °C)
UGGGAGCAAUAUUACGCCUU	-2.66 ± 0.26	-1.66 ± 0.31
CCGCAGCAAUAUUACGUGGU	-3.29 ± 0.13	-2.25 ± 0.13
GACGAGCAAUAUUACGGAGU	-3.71 ± 0.35	-2.49 ± 0.24
CACAAGCAAUAUUACGGUGU	-3.86 ± 0.14	-2.07 ± 0.14
GGAGAGCAAUAUUACGAAUG	-3.28 ± 0.28	-2.71 ± 0.41
GACUAGCAAUAUUACGCCCC	-0.792 ± 0.23	-0.904 ± 0.27
CAUAAGCAAUAUUACGCACG	-1.64 ± 0.1	-0.299 ± 0.13
GAGUAGCAAUAUUACGCAAG	-3.43 ± 0.26	-0.127 ± 0.1
GAUGAGCAAUAUUACGUUGC	-4.01 ± 0.39	-3 ± 0.35
AUGGAGCAAUAUUACGACUG	-2.28 ± 0.3	
GGUCAGCAAUAUUACGACCC	-2.52 ± 0.27	-2.43 ± 0.41
AACGAGCAAUAUUACGAAAG	-2.83 ± 0.48	-1.43 ± 0.32
UCAAAGCAAUAUUACGCUCA	-0.864 ± 0.15	-0.428 ± 0.19
GCUGAGCAAUAUUACGGGGU		-2.36 ± 0.28
GAUUAGCAAUAUUACGUUAA	-1.94 ± 0.32	-1.98 ± 0.3
UCUUAGCAAUAUUACGUUCC	-3.4 ± 0.3	
AAGUAGCAAUAUUACGUCUU	-0.577 ± 0.12	-0.48 ± 0.11
UUCAAGCAAUAUUACGCCUC	-1.59 ± 0.14	-1.34 ± 0.16
GUCUAGCAAUAUUACGUUUC	-0.78 ± 0.057	-0.0328 ± 0.073
CGGCAGCAAUAUUACGAGAG	-3.21 ± 0.23	-1.44 ± 0.2
GGACAGCAAUAUUACGACCG	-0.447 ± 0.16	-0.054 ± 0.27
GUCAAGCAAUAUUACGCAUU	-1.21 ± 0.089	-1.02 ± 0.13
GACCAGCAAUAUUACGUUCU	-0.569 ± 0.078	-0.975 ± 0.12
CUCAAGCAAUAUUACGGCGC		-0.598 ± 0.19
CCUCAGCAAUAUUACGUCAA	-4.15 ± 0.31	-3.11 ± 0.29
GUUCAGCAAUAUUACGACGA	-1.26 ± 0.21	-0.637 ± 0.18

Sequence	self-splicing fitness (ln) (30 °C)	self-splicing fitness (ln) (37 °C)
GGAGAGCAAUAUUACGCACA		-0.604 ± 0.3
UUCCAGCAAUAUUACGGUGG	-3.89 ± 0.27	-3.15 ± 0.24
ACAGAGCAAUAUUACGCUUU	-2.28 ± 0.26	-2.45 ± 0.23
GUAUAGCAAUAUUACGCGAA	-2.01 ± 0.36	-0.808 ± 0.23
ACGCAGCAAUAUUACGUGAA	-2.62 ± 0.15	-1.01 ± 0.13
ACUUAGCAAUAUUACGCGCC	-1.35 ± 0.18	-0.348 ± 0.19
UAUCAGCAAUAUUACGAAGG	-1.58 ± 0.1	-1.34 ± 0.13
AUAAAGCAAUAUUACGCAUC	-3.37 ± 0.26	-1.74 ± 0.3
UACGAGCAAUAUUACGCUCA	-1.46 ± 0.15	-0.952 ± 0.2
CGUAAGCAAUAUUACGAGCU	-3.7 ± 0.37	-2.53 ± 0.41
GACUAGCAAUAUUACGAUUA	-0.841 ± 0.069	-0.413 ± 0.082
CCAAAGCAAUAUUACGAAAG	-1.14 ± 0.088	-0.678 ± 0.11
ACCUAGCAAUAUUACGAAUU	-2.72 ± 0.13	-0.574 ± 0.12
ACUAAGCAAUAUUACGUACA	-1.55 ± 0.086	-1.14 ± 0.087
AUGAAGCAAUAUUACGUAAA	-1.99 ± 0.09	-1.27 ± 0.11
UGGUAGCAAUAUUACGGUCG	-0.382 ± 0.12	-0.0256 ± 0.16
UUAGAGCAAUAUUACGACCC	-2.63 ± 0.49	-1.74 ± 0.49
UUAUAGCAAUAUUACGAGGU		-2.14 ± 0.37
AGGCAGCAAUAUUACGAGUU	-1.69 ± 0.11	-0.885 ± 0.1
AGUUAGCAAUAUUACGUGAC	-2.66 ± 0.24	-2.9 ± 0.33
AAAUAGCAAUAUUACGGUAG	-3.63 ± 0.22	-2.62 ± 0.23
CGUGAGCAAUAUUACGGUUG	-1.49 ± 0.07	-0.412 ± 0.094
CCCUAGCAAUAUUACGCAUU	-3.74 ± 0.28	-2.82 ± 0.43
CCAGAGCAAUAUUACGGCGC	-3.67 ± 0.25	-2 ± 0.26
AAAGAGCAAUAUUACGAAAG	-3.63 ± 0.24	-3.18 ± 0.24
AAACAGCAAUAUUACGGGGA	-2.79 ± 0.1	-1.63 ± 0.081

Sequence	self-splicing fitness (ln) (30 °C)	self-splicing fitness (ln) (37 °C)
CACGAGCAAUAUUACGCGUU	-4.28 ± 0.47	-2.1 ± 0.18
UCAUAGCAAUAUUACGGCAG	-1.31 ± 0.15	-1.07 ± 0.15
CGCAAGCAAUAUUACGCACU	-0.441 ± 0.092	-0.325 ± 0.11
GGAAAGCAAUAUUACGUUAG	-3.14 ± 0.16	-1.9 ± 0.15
UCCGAGCAAUAUUACGGUCG	-3.68 ± 0.47	-2 ± 0.45
CGUAAGCAAUAUUACGAGUC	-2.82 ± 0.4	-1.92 ± 0.34
CUACAGCAAUAUUACGUAAC	-3.34 ± 0.16	-2.03 ± 0.21
CUCAAGCAAUAUUACGUGUU	-3.89 ± 0.23	-2.76 ± 0.22
UUCUAGCAAUAUUACGGAUG	-1.05 ± 0.098	-0.888 ± 0.13
CACAAGCAAUAUUACGUUCC	-3.75 ± 0.19	-2.42 ± 0.23
CGGUAGCAAUAUUACGUAUA	-3.71 ± 0.24	-2.53 ± 0.18
AGUCAGCAAUAUUACGUCGC	-1.65 ± 0.13	-1.14 ± 0.19
UAGCAGCAAUAUUACGUCUG	-1.32 ± 0.14	-1.6 ± 0.14
CGGGAGCAAUAUUACGAUUU	-3.64 ± 0.33	-1.2 ± 0.24
UCCUAGCAAUAUUACGAUUA		-3.41 ± 0.46
CGCCAGCAAUAUUACGCGCG	-3.57 ± 0.16	-3.7 ± 0.27
AUUCAGCAAUAUUACGCCGA	0.0822 ± 0.39	-0.539 ± 0.39
UUAUAGCAAUAUUACGUCCU	-3.3 ± 0.34	-1.78 ± 0.27
AUUCAGCAAUAUUACGACUA	-0.646 ± 0.12	-0.106 ± 0.12
AGGUAGCAAUAUUACGUCUC	-3.938 ± 0.036	-2.38 ± 0.047
GCGCAGCAAUAUUACGUGUC	-2.71 ± 0.19	-2.83 ± 0.24
UGUUAGCAAUAUUACGGCCC	-2.13 ± 0.36	-1.13 ± 0.41
ACACAGCAAUAUUACGUGUG	-3.55 ± 0.1	-1.44 ± 0.065
AUUUAGCAAUAUUACGCAUA	-2.26 ± 0.12	-1.18 ± 0.12
GCCUAGCAAUAUUACGAACC	-1.07 ± 0.27	0.0441 ± 0.29
CACAAGCAAUAUUACGAGAU	-3.28 ± 0.1	-2.74 ± 0.12
